Assay in all cases: ELISA
(An ELISA detects its analyte on a solid surface through an enzyme-linked reagent.)

One experiment has as its target FN1. The protocol:
(§1) For the anti-human EphA4 monoclonal antibodies produced in Example 1, evaluation of binding activity to various EphA4 was performed according to the following steps. Mouse anti-6-His antibodies (R&D) were coated on the wells of a 96-well plate (Thermo […]). After incubating at room temperature for 1 hour, the wells were blocked at room temperature for 1 hour with 1% Block Ace (KAC). After washing three times with 0.02% Tween 20/PBS, the wells were seeded with human EphA4 extracellular domain-MBP-His protein, human EphA4 ligand binding domain-MBP-His protein, human EphA4 fibronectin III-type domain 1-MBP-His protein, human EphA4 fibronectin III-type domain 2-MBP-His protein, or MBP-His protein (final concentration 1 nM), and this was incubated at room temperature for 1 hour. After washing three times, anti-human EphA4 rabbit monoclonal antibody (10 pg/mL) was added, and this was incubated at room temperature for 1 hour. After washing three times, horseradish peroxidase labeled goat anti-rabbit IgG polyclonal antibody (abcam) was added, and this was incubated at room temperature for 1 hour. After washing three times, TMBZ (3,3′,5,5′-tetramethylbenzidine, KPL) solution was added to the wells, and this was incubated for four and a half minutes at room temperature. Equal amounts of quenching solution (2 N H₂SO₄, FUJIFILM Wako) were added to the wells, and absorbance at 450 nm and 650 nm were read with a microplate reader (Thermo […]).

A further experiment addresses FN2. The protocol: as §1
Experiment [1] concerns the target human EphA4 ligand binding domain-MBP-His protein (human, UniProt P54764 20-209; P0AEX9 29-392 = MBP). The method, then: as §1
Experiment [2] addresses T1, human EphA4 extracellular domain-MBP-His protein (human).
T1 construct: also called human EphA4 extracellular domain (ECD); Human EphA4 extracellular domain-MBP-His 10
The method, then:
as §1

The target of another experiment is T2, Rabbit.
T2 construct: also called rabbit EphA4 extracellular domain-SEAP-His protein
The protocol: (§2) For the anti-human EphA4 monoclonal antibodies produced in Example 1, evaluation of binding activity to various EphA4 was performed according to the following steps. Mouse anti-6-His antibodies (R&D) were coated on the wells of a 96-well plate (Thermo […]). After incubating at room temperature for 1 hour, the wells were blocked at 4° C. overnight with 1% Block Ace (KAC). After washing three times with 0.02% Tween 20/PBS, the wells were seeded with mouse EphA4 extracellular domain-SEAP-His protein, rat EphA4 extracellular domain-SEAP-His protein, rabbit EphA4 extracellular domain-SEAP-His protein, monkey EphA4 extracellular domain-SEAP-His protein, human EphA4 extracellular domain-SEAP-His protein, or SEAP-His protein (final concentration 1 nM), and this was incubated at room temperature for 1 hour. After washing three times, anti-human EphA4 rabbit monoclonal antibody (10 pg/mL) was added, and this was incubated at room temperature for about 1 hour. After washing three times, horseradish peroxidase labeled goat anti-rabbit IgG polyclonal antibody (abcam) was added, and this was incubated at room temperature for 1 hour. After washing three times, TMBZ (3,3′,5,5′-tetramethylbenzidine, KPL) solution was added to the wells, and this was incubated for 3 minutes at room temperature. Equal amounts of quenching solution (2 N H₂SO₄, FUJIFILM Wako) were added to the wells, and absorbance at 450 nm and 650 nm were read with a microplate reader (Thermo […]).

For the next experiment, the target named is T3, SEAP.
T3 construct: negative control antigen; also called SEAP-His protein
The protocol:
as §2

Experiment [3] addresses human EphA4 extracellular domain-SEAP-His protein (human). The method, then: as §2
Experiment [4] addresses T4, monkey EphA4 extracellular domain-SEAP-His protein (monkey).
T4 construct: the fusion as a whole has none; not shown: SEAP-His part
The method, then: as §2

The next experiment deals with T5, Mouse.
T5 construct: also called mouse EphA4 extracellular domain-SEAP-His protein
The method, then: as §2

In a further experiment the target is MBP. The protocol: as §1
In the next experiment the target is T6, Rat.
T6 construct: also called rat EphA4 extracellular domain-SEAP-His protein
The method, then:
as §2

For 8 molecules, absorbance results are on record in patent publication US20240385190A1 (EISAI R AND D MANAGEMENT, published 2024).

T4 sequence (chain, as listed by the source): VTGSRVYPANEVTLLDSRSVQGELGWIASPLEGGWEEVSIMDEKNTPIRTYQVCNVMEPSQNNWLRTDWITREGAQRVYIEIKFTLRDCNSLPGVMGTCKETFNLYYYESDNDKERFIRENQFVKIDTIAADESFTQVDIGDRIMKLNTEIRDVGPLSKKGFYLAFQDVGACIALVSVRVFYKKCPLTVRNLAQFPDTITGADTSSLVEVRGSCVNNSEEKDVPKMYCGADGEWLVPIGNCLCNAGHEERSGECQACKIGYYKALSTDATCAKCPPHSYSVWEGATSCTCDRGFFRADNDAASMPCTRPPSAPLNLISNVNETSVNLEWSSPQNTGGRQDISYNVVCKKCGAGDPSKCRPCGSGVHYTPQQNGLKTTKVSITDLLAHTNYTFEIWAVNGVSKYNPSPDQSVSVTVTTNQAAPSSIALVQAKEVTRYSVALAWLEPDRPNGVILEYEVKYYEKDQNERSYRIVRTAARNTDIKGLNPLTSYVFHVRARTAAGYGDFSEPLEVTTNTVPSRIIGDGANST
Sequence of human EphA4 extracellular domain-SEAP-His protein (human) (chain, as listed by the source limits assumed): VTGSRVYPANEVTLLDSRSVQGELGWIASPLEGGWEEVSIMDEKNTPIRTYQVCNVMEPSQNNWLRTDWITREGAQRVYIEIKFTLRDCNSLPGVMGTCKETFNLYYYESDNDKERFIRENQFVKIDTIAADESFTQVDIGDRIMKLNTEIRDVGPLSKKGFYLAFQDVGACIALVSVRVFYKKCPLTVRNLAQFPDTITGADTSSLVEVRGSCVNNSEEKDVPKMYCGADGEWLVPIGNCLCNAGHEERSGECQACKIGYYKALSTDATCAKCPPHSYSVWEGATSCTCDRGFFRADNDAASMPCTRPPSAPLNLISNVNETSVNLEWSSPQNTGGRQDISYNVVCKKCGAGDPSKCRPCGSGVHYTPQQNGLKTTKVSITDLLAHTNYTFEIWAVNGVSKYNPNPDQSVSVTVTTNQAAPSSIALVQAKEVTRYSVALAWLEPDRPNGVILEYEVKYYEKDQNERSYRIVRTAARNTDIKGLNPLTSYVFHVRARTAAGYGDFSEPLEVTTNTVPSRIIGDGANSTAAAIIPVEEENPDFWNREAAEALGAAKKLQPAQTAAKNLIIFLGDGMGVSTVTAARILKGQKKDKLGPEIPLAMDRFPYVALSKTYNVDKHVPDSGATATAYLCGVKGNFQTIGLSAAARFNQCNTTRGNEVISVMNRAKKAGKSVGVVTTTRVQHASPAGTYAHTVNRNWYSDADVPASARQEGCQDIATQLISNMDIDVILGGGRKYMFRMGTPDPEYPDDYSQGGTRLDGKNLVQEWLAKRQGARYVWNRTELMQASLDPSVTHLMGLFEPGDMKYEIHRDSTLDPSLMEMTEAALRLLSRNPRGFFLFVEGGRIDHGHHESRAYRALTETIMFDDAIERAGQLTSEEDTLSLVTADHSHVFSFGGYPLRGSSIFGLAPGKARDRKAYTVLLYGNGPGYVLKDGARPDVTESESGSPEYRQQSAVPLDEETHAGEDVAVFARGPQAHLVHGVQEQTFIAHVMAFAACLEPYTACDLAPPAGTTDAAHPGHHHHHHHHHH

B1: KPEP11_02 (antibody, V domains shown)
VH: QSLEESGGRLVTPGGSLTLTCTVSGIDLSSYAMSWVRQAPEKGLEWIGFINNYGTYYASWAKGRFTISKTSTTVDLKVTSLTTEDTATYFCVRGGRSPNYDIVSGDIWGPGTLVTVSS
VL: YVMMTQTPSSVSEPVGGTVTIKCQASQNIYNSLAWYQQKPGQRPKLLIADASELASGVPQRFSGSGSGTQFTLTISDLECADAATYYCQSSSAGDSYVGGFGGGTEVVVKG
notes: Rabbit IgG; also called anti-human EphA4 rabbit monoclonal antibody KPEP11_02
In the case of B1, the absorbance in the experiment with FN1 came to 0.213; with FN2, 0.227; in [1] it was 1.32; in experiment [2], 1.35; with Rabbit, 0.04; with SEAP, 0.071. The absorbance in [3] stood at 1.25; in experiment [4], 1.2; with Mouse it was 0.048.

B2: KPEP11_07 (antibody, V domains shown)
VH: QEQLKESGGRLVTPGGSLTLTCTVSGIDLSSYAMSWVRQAPEKGLEWIGFINMYGTYYASWAKGRFTISRTSTTVDLKVTSLTTEDTATYFCVRGGRSPDYDIVSGDIWGPGTLVTVSS
VL: YVMMTQTPSSVSEPVGGTVTIKCQASQNIYNSLAWYQQKPGQRPKLLIADASELASGVPQRFSGSGSGTQFTLTISDLECADAATYYCQSSSAGDSYVGGFGGGTEVVVKG
notes: Rabbit IgG; also called anti-human EphA4 rabbit monoclonal antibody KPEP11_07
On to B2, for which the absorbance with MBP is 0.24; with FN1, 0.226; with FN2, 0.22; in experiment [1], 1.39; in [2], 1.42; in the experiment with Rat, 0.044. Besides, the absorbance with SEAP turned out to be 0.05; in experiment [3] it was 1.22; in experiment [4], 1.18; with Mouse, 0.045.

B3: KPEP11_05 (antibody, V domains shown)
VH: QSLEESGGRLVTPGGSLTLTCTVSGIDLSSYAMSWVRQAPEKGLEWIGFINNYGTYYASWAKGRFTISKTSTTVDLKVTSLTTEDTATYFCVRGGRSPNYDIVSGDIWGPGTLVTVSS
VL: YVMMTQTPSSVSEPVGGTVTIKCQASQNIYNSLAWYQQKPGQRPKLLIADASELASGVPQRFSGSGSGTQFTLTISDLECADAATYYCQSSSAGDSYVGGFGGGTEVVVKG
notes: Rabbit IgG; also called anti-human EphA4 rabbit monoclonal antibody KPEP11_05
In the case of B3, the absorbance came out at 0.239 with MBP; 0.213 with FN1; 0.225 in the experiment with FN2; 1.32 in experiment [1]; 1.43 in experiment [2]; 0.035 in the experiment with Rabbit. In addition, the absorbance in the experiment with Rat was 0.043; in the experiment with SEAP it was 0.043; in experiment [4] it was 1.24; with Mouse, 0.045.

B4: KPEP11_12 (antibody, V domains shown)
VH: QSLEESGGRLVTPGTPLTLTCTVSGFSLSSYHMSWVRQAPGKGLEWIGIIYRSGNTYYANWAKGRFTISKTSTTVDLKITSPTTEDTATYFCARESSTFYGMDLWGPGTLVTVSS
VL: YVMMTQTPSSVSAAVGGTVTINCQASQSVYGNNELAWYQQKPGQRPKLLIYRASTLASGVPSRFKGSGSGTEFTLTISDLECADAATYYCLGYKSDDYTFGGGTKVEIKG
notes: Rabbit IgG; also called anti-human EphA4 rabbit monoclonal antibody KPEP11_12
Consider B4, for which the absorbance amounted to 0.302 with MBP; 0.255 with FN1; 0.283 in experiment [1]; 1.29 in experiment [2]; 0.055 in the experiment with Rabbit; 0.054 in the experiment with Rat. The absorbance in the experiment with SEAP amounted to 0.067; in experiment [3], 1.22; in experiment [4], 1.19; in the experiment with Mouse, 0.059.

B5: KPEP11_13 (antibody, V domains shown)
VH: QSLEESGGRLVTPGTPLTLTCTVSGFSLSSYHMSWVRQAPGKGLEWIGIIYRSGNTYYANWAKGRFTISKTSTTVDLKITSPTTEDTATYFCARESSTFYGMDLWGPGTLVTVSS
VL: YVMMTQTPSSVSAAVGGTVTINCQASQSVYGNNELAWYQQKPGQRPKLLIYRASTLASGVPSRFKGSGSGTEFTLTISDLECADAATYYCLGYKSDDYTFGGGTKVEIKG
notes: Rabbit IgG; also called anti-human EphA4 rabbit monoclonal antibody KPEP11_13
Consider B5, for which the absorbance stood at 0.402 in the experiment with MBP; 0.318 with FN1; 0.36 with FN2; 0.348 in experiment [1]; 1.31 in [2]; 0.083 with Rabbit. Moreover, the absorbance in the experiment with Rat is 0.086; with SEAP, 0.099; in [3], 1.18; in [4] it was 1.17; in the experiment with Mouse it was 0.082.

B6: KPEP11_01 (antibody, V domains shown)
VH: QSVEESGGRLVTPGTPLTLTCTVSGFSLSSYHMSWVRQAPGKGLEWIGIIYRSGNTYSANWAKGRFTISKTSTTVDLKITSPTTEDTATYFCARESSTFYGMDLWGPGTLVTVSS
VL: YVMMTQTPSSVSAAVGGTVTINCQASQSVYGNNELAWYQQKPGQRPKLLIYRASTLASGVPSRFKGSGSGTEFTLTISDLECADAATYYCLGYKSDDYTFGGGTKVEIKG
notes: also called anti-human EphA4 rabbit monoclonal antibody KPEP11_01
As for B6, the absorbance worked out at 0.231 in the experiment with MBP; 0.228 in the experiment with FN1; 0.235 with FN2; 0.236 in [1]; 0.045 in the experiment with Rabbit; 0.042 in the experiment with Rat. Besides, the absorbance with SEAP turned out to be 0.052; in [3] it was 1.21; in [4], 1.18; in the experiment with Mouse, 0.049.

B7: KPEP11_09 (antibody, V domains shown)
VH: QSVEESGGRLVTPGTPLTLTCTVSGFSLSSYHMSWVRQAPGKGLEWIGIIYRSGNTYSANWAKGRFTISKTSTTVDLKITSPTTEDTATYFCARESSTFYGMDLWGPGTLVTVSS
VL: YVMMTQTPSSVSAAVGGTVTINCQASQSVYGNNELAWYQQKPGQRPKLLIYRASTLASGVPSRFKGSGSGTEFTLTISDLECADAATYYCLGYKSDDYTFGGGTKVEIKG
notes: Rabbit IgG; also called anti-human EphA4 rabbit monoclonal antibody KPEP11_09
On to B7, for which the absorbance in the experiment with MBP worked out at 0.291; with FN1 it was 0.24; with FN2, 0.242; in experiment [2], 1.24; in the experiment with Rat it was 0.064; with SEAP, 0.07. Moreover, the figures for the absorbance (in [3]; in experiment [4]; with Mouse) were 1.14, 1.15 and 0.079, respectively.

B8: KPEP11_20 (antibody, V domains shown)
VH: QSLEESGGRLVTPGTPLTLTCTVSGFSLNNYYMNWVRQAPGKGLEWIGIIYPDIDTTDYASWVKGRFTISKTSTTVDLKITSPTTEDTATYFCARSDIDYYTTRLDLWGQGTLVTISS
VL: AQVLTQTPSPVSAAVGGTVSINCQSSPSVYNNNWLSWFQQKPGQPPKLLIYGASTLASGVPSRFKGSGSGTQFTLTISDVQCDDAATYYCAGGYDSNSDTAFGGGTELEILG
notes: Rabbit IgG; also called anti-human EphA4 rabbit monoclonal antibody KPEP11_20
As to B8, the absorbance with MBP stood at 0.274; with FN1, 0.207; with FN2, 0.238; in experiment [1], 1.42; in experiment [2], 1.26; in the experiment with Rabbit, 0.046. Further, the absorbance in the experiment with Rat stood at 0.062; with SEAP it was 0.067; in [3], 1.16; in experiment [4] it was 1.15; with Mouse it was 0.052.
